Assay results reported in CN113563467A (SHANGHAI PUMING BIOLOGICAL TECH CO LTD, dated 2021).

Columns and labels:
[1] = target: T1, 人C5蛋白 in 人血清补体 (Normal Human Serum Complement, Quidel, A112) (human, UniProt P01031 19-1676); assay: cell-based or functional assay
[2] = target: T1, 人C5蛋白 in 人血清补体 (Normal Human Serum …); assay: cell-based or functional assay; remark: listed apart in the source

T1 sequence (P01031 19-1676 limits assumed): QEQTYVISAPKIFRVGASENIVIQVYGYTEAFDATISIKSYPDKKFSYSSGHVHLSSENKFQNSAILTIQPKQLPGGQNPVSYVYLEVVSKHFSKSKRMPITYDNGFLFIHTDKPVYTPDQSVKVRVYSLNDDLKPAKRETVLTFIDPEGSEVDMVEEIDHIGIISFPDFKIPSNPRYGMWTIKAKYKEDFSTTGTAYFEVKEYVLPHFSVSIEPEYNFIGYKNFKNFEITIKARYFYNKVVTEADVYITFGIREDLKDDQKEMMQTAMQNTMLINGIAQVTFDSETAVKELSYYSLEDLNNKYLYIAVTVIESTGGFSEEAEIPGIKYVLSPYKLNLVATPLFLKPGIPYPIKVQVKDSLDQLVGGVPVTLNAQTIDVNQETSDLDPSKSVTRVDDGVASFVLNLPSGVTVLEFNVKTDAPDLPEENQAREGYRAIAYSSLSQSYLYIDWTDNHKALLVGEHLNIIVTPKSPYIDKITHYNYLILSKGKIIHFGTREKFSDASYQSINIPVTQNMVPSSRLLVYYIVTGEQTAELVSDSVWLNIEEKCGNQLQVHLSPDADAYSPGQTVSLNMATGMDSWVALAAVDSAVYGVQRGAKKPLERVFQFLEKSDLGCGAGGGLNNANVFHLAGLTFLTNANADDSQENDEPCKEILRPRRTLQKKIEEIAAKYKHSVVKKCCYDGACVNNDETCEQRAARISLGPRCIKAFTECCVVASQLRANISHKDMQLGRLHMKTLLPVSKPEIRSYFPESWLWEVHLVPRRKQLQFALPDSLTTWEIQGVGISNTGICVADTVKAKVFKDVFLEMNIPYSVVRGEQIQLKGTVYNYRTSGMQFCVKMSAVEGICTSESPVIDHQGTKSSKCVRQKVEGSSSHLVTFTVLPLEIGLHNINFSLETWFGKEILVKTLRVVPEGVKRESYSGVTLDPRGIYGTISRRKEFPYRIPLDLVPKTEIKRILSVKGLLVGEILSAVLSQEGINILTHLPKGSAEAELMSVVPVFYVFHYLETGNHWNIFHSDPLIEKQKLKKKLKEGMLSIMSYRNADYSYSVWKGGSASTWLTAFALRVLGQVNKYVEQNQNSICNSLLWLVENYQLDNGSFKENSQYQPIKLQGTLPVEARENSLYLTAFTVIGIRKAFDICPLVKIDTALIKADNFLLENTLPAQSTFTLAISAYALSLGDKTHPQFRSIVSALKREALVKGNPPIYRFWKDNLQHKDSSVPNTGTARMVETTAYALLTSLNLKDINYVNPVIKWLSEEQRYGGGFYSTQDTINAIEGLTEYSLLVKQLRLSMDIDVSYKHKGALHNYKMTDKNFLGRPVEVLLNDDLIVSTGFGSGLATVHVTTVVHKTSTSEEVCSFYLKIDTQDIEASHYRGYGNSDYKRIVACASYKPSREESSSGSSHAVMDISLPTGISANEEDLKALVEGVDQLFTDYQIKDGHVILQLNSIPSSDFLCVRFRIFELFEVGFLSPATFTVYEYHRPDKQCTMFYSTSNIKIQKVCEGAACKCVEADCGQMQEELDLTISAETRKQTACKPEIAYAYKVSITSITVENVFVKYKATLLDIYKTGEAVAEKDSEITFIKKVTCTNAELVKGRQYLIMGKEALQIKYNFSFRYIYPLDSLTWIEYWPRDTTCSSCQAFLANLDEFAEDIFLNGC

B1: Ref1 (对照抗体依库珠单抗可变区，hIgG1/hIgG-Kappa) (antibody, V domains shown)
VH: QVQLVQSGAEVKKPGASVKVSCKASGYIFSNYWIQWVRQAPGQGLEWMGEILPGSGSTEYTENFKDRVTMTRDTSTSTVYMELSSLRSEDTAVYYCARYFFGSSPNWYFDVWGQGTLVTVSS
VL: DIQMTQSPSSLSASVGDRVTITCGASENIYGALNWYQQKPGKAPKLLIYGATNLADGVPSRFSGSGSGTDFTLTISSLQPEDFATYYCQNVLNTPLTFGQGTKVEIKR
EC50(ug/ml), 补体依赖性细胞毒性(CDC)阻断分析 [1]: 2.63 µg/mL | IC50(ug/ml), 补体依赖性溶血实验 [2]: 8.73 µg/mL
